Data: paper PMC5017722

Tests used:
[1] = target: soluble hMPV F ectodomain (1-489, NL/1/00, G294E) with C-terminal TEV site, Foldon, Xa site and 6xHis-tag, uncleaved (human metapneumovirus, strain NL/1/00 (A1 sublineage)); assay: SEC; HiLoad 16/600 Superdex 200 pg; 50 mM Na2HPO4 pH 8.0, 300 mM NaCl
[2] = target: soluble postfusion hMPV F (NL/1/00, A1 sublineage), furin-cleaved, fusion peptide residues 103-111 d (human metapneumovirus, strain NL/1/00 (A1 sublineage)); assay: as above

| Substance | stoichiometry N [1] | stoichiometry N [2] |
| --- | --- | --- |
| soluble hMPV F ectodomain (1-489, NL/1/00, G294E) with C-terminal TEV site, Foldon, Xa site and 6xHis-tag, uncleaved (domain or fragment) | 3 |  |
| soluble postfusion hMPV F (NL/1/00, A1 sublineage), furin-cleaved, fusion peptide residues 103-111 d (domain or fragment) |  | 3 |
